Measurements: publication PMC5843810, “18th European Symposium on Radiopharmacy and Radiopharmaceuticals” (EJNMMI Radiopharmacy and Chemistry, 2016)

Target: Gastrin-Releasing Peptide Receptor (human (endogenous in PC3)) (UniProt P30550)
Test: radioligand binding; displacement of the small-molecule tracer [18F]PD410 from PC3 cells by increasing concentrations of the peptide

Gastrin-Releasing Peptide Receptor (human (endogenous in PC3)), sequence (P30550 whole entry): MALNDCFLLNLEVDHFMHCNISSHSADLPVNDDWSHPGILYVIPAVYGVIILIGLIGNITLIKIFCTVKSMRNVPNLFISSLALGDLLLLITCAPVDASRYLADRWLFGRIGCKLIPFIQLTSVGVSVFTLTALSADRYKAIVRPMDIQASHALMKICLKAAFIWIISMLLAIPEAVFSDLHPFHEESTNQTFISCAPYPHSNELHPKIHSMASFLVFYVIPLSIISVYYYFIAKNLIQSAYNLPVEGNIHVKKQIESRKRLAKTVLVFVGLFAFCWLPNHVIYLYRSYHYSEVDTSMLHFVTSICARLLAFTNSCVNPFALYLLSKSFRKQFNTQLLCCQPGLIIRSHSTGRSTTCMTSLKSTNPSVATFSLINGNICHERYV

Glu[Aca-BN(7-14)]2 (peptide) was tested, and the IC50 was 0.1 nM.
